± gives the uncertainty stated by the source.
Experiment: amyloid nucleation score (Sup35N fusion, yeast selection) (log enrichment); library NNK1; higher = more nucleation; inactive = no reads after selection
Procedure, shortened: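 Plasmid inserts were Illumina-sequenced at input and output from psi-negative yeast expressing Sup35N fused to peptides of 20 random codons. The yeast were induced with 100 μM copper sulfate for 24 hours and grown 7 days at 30°C on medium lacking adenine and uracil, and sequences with under 100 input reads were excluded. Nucleation score is the DiMSum log enrichment of output over input reads, centred on the mode score of non-aggregating sequences.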

Q: For TNYDFMVCCFKPSMAYGKCM, which amyloid nucleation score is on record?
A: -0.354 ± 0.63

Q: With TPFVMIKDGKADFVILNVYH as the substance, how does the amyloid nucleation score read?
A: 7.077 ± 0.055

Q: Which amyloid nucleation score does the source give for TPGNVG here?
A: 0.514 ± 0.26

Q: With TPLKEHLLNVVRMLGKIDCD as the substance, how does the amyloid nucleation score read?
A: 0.177 ± 0.42

Q: Which amyloid nucleation score does the source give for TPSMKWFPKLLVLVSSTRHY here?
A: -0.51 ± 0.44

Q: Which amyloid nucleation score does the source give for TPSTQLALWAIYFHRRLFES here?
A: -0.54 ± 1.3

Q: For TPTSSIPTPPRFPALTC, which amyloid nucleation score is on record?
A: -0.72 ± 0.41

Q: Which amyloid nucleation score does the source give for TQIAESYLVQANNSAEATAA here?
A: -0.32 ± 1.4

Q: With TQSCF as the substance, how does the amyloid nucleation score read?
A: 0.074 ± 0.84

Q: Which amyloid nucleation score does the source give for TQSTLGSMTIASDYCTTE here?
A: 1.42 ± 0.34

Q: With TRALVFRQYYIAPVHCYYLG as the substance, how does the amyloid nucleation score read?
A: 3.54 ± 0.19

Q: With TRGTPFEYLATGG as the substance, how does the amyloid nucleation score read?
A: 0.607 ± 0.71

Q: With TRLCWFWFNA as the substance, how does the amyloid nucleation score read?
A: 0.066 ± 0.41

Q: Which amyloid nucleation score does the source give for TRLLSYFDTRRELNCKVYYN here?
A: -0.053 ± 0.66

Q: For TRPLPWTQP, which amyloid nucleation score is on record?
A: 0.242 ± 0.47

Q: With TRQNMFGIHHPWYNRRIS as the substance, how does the amyloid nucleation score read?
A: -0.458 ± 0.42

Q: With TRTESVMVLWRRMAVGGCGR as the substance, how does the amyloid nucleation score read?
A: 0.362 ± 0.65

Q: Which amyloid nucleation score does the source give for TRTNELF here?
A: 0.498 ± 0.33

Q: Which amyloid nucleation score does the source give for TRVEFEQGVVFGELYSVFRV here?
A: 0.351 ± 0.39

Q: With TRVGLVPSLGDRSDNYIVRI as the substance, how does the amyloid nucleation score read?
A: 0.087 ± 0.39

Q: Which amyloid nucleation score does the source give for TRWCVRERVSFKRAGQCDRV here?
A: inactive

Q: With TRWIRYTFRFS as the substance, how does the amyloid nucleation score read?
A: 1.61 ± 0.13

Q: With TSAVQIVTLQLVLSWMRYHM as the substance, how does the amyloid nucleation score read?
A: 1.02 ± 0.28

Q: For TSAVSSCDFRKRWCCSSFHW, which amyloid nucleation score is on record?
A: 0.665 ± 0.24

Q: With TSCFGVWRHVLSRHSFRTSV as the substance, how does the amyloid nucleation score read?
A: 4.17 ± 0.13

Q: With TSDGHFSSQVDSVDESKVGE as the substance, how does the amyloid nucleation score read?
A: -0.534 ± 0.46

Q: For TSEDMC, which amyloid nucleation score is on record?
A: -1.18 ± 2.1

Q: Which amyloid nucleation score does the source give for TSFVSETGFTWVCVFLVAGT here?
A: 0.616 ± 1.1

Q: Which amyloid nucleation score does the source give for TSGFKLGRSGGYVCRS here?
A: 1.41 ± 0.78

Q: With TSHAVFNTVINLVVFVDQHC as the substance, how does the amyloid nucleation score read?
A: 8.111 ± 0.055

Q: With TSILAKNIIYCHYVGFPLGC as the substance, how does the amyloid nucleation score read?
A: 5.97 ± 0.093

Q: Which amyloid nucleation score does the source give for TSIMRVTILLISGGRLDVFL here?
A: -0.896 ± 1

Q: Which amyloid nucleation score does the source give for TSLCMIHYVK here?
A: -0.069 ± 1.1

Q: Which amyloid nucleation score does the source give for TSNCGTSLIDHSVRLLMLQR here?
A: -0.163 ± 0.49

Q: With TSNNLFKRALVGDYNKVAYR as the substance, how does the amyloid nucleation score read?
A: 0.572 ± 0.75

Q: For TSPTYAYCYCLSTNRRQKCL, which amyloid nucleation score is on record?
A: -0.957 ± 1.1

Q: With TSRSSVFRVAFHCGGSDSLV as the substance, how does the amyloid nucleation score read?
A: 0.039 ± 0.43

Q: Which amyloid nucleation score does the source give for TSSDCLLDSSIFNVGKFWYV here?
A: 0.019 ± 0.53

Q: For TSSFFTDIDFNG, which amyloid nucleation score is on record?
A: -0.363 ± 0.7

Q: For TSSWDSPCYQEAVFIGGYYI, which amyloid nucleation score is on record?
A: 0.619 ± 0.47

Q: For TTALFWSRRPSFGDLYRGFN, which amyloid nucleation score is on record?
A: 3.86 ± 0.082

Q: For TTCGCKMHVSAHR, which amyloid nucleation score is on record?
A: 0.425 ± 1.1

Q: Which amyloid nucleation score does the source give for TTCSVVRDFYSLIFCTKCPY here?
A: 4.03 ± 0.063

Q: With TTLNEELYSLVVSRDWGDSN as the substance, how does the amyloid nucleation score read?
A: inactive

Q: For TTLWLVPYVC, which amyloid nucleation score is on record?
A: 0.529 ± 0.58

Q: With TTMIRSYFREDYGQGPLMSW as the substance, how does the amyloid nucleation score read?
A: 0.51 ± 1.2

Q: Which amyloid nucleation score does the source give for TTRAHEVDTYLYFHFGVGRT here?
A: 2.84 ± 0.17

Q: Which amyloid nucleation score does the source give for TTRCVFSPDNVDTDY here?
A: inactive

Q: Which amyloid nucleation score does the source give for TTSRAWFYL here?
A: -0.353 ± 1

Q: Which amyloid nucleation score does the source give for TTTNCRI here?
A: 0.057 ± 0.23

Q: For TTVLRGLKTP, which amyloid nucleation score is on record?
A: -0.825 ± 1.5

Q: Which amyloid nucleation score does the source give for TTVPSNV here?
A: -0.189 ± 1.7

Q: With TTYRCNVKYQYFMFNDIEFF as the substance, how does the amyloid nucleation score read?
A: 3.54 ± 0.21

Q: With TVEYNRPFCRFIFCGSGYRH as the substance, how does the amyloid nucleation score read?
A: -1.2 ± 0.92

Q: For TVGSIQKAEYWIHGYMATVN, which amyloid nucleation score is on record?
A: 0.169 ± 0.29

Q: With TVHSLV as the substance, how does the amyloid nucleation score read?
A: -0.276 ± 0.38

Q: Which amyloid nucleation score does the source give for TVHVGTVPKFSYRFGIMGTE here?
A: -0.482 ± 0.66

Q: For TVIEIKL, which amyloid nucleation score is on record?
A: 1.28 ± 0.85

Q: With TVIYSNYAVICMGSMSQVDT as the substance, how does the amyloid nucleation score read?
A: 7.762 ± 0.059

Q: Which amyloid nucleation score does the source give for TVLNFKAQYRSSPMLAH here?
A: 0.862 ± 0.39

Q: For TVNHFGLEPCVTKIMGLY, which amyloid nucleation score is on record?
A: 0.213 ± 0.74

Q: Which amyloid nucleation score does the source give for TVNVY here?
A: 0.829 ± 0.62

Q: Which amyloid nucleation score does the source give for TVNYTCYYGYIIFGYASSVK here?
A: 3.63 ± 0.076

Q: For TVPLEIIL, which amyloid nucleation score is on record?
A: 0.382 ± 0.52
